Source: PMC4357533 (Journal of molecular biology, 2015)
Changes are numbered by the printed parent chain. Names may count otherwise.

B1: Sis1 single alteration variant K199N (natural protein, S. cerevisiae, UniProt P25294 1-352, looked up)
chain: MVKETKLYDLLGVSPSANEQELKKGYRKAALKYHPDKPTGDTEKFKEISEAFEILNDPQKREIYDQYGLEAARSGGPSFGPGGPGGAGGAGGFPGGAGGFSGGHAFSNEDAFNIFSQFFGGSSPFGGADDSGFSFSSYPSGGGAGMGGMPGGMGGMHGGMGGMPGGFRSASSSPTYPEEETVQVNLPVSLEDLFVGKKNSFKIGRKGPHGASEKTQIDIQLKPGWKAGTKITYKNQGDYNPQTGRRKTLQFVIQEKSHPNFKRDGDDLIYTLPLSFKESLLGFSKTIQTIDGRTLPLSRVQPVQPSQTSTYPGQGMPTPKNPSQRGNLIVKYKVDYPISLNDAQKRAIDENF
B2: Sis1 single alteration variant K214N (natural protein, S. cerevisiae, UniProt P25294 1-352, looked up)
chain: B1 chain with N199K, K214N
B3: Sis1 single alteration variant K202N (natural protein, S. cerevisiae, UniProt P25294 1-352, looked up)
chain: B1 chain with N199K, K202N

biological target: Ssa1 Hsp70 (S. cerevisiae, UniProt P10591 1-642); test: ELISA
Sequence (P10591 whole entry): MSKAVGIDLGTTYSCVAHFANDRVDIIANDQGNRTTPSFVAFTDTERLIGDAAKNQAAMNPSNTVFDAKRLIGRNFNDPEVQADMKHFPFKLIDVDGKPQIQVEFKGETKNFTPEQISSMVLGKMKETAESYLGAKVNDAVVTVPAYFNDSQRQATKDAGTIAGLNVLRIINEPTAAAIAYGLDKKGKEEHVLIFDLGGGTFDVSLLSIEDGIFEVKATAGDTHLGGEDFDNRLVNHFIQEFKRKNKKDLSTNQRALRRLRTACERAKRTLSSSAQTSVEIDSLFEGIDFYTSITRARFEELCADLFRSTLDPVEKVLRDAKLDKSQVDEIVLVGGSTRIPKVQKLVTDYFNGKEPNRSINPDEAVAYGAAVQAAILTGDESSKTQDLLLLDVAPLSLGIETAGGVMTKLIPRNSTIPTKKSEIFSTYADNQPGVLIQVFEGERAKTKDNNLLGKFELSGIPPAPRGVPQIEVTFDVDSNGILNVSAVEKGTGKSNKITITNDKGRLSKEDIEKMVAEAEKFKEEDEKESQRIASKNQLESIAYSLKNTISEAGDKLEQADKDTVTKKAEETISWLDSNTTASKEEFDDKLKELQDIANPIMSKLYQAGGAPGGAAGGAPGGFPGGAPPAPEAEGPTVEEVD

| binding result | Binder |
| --- | --- |
| binds | B1 |
| binds | B2 |
| binds | B3 |
